Sequences and labels used below:
T1: NUPR1 (recombinant, purified) (UniProt O60356 1-82)
T1 chain: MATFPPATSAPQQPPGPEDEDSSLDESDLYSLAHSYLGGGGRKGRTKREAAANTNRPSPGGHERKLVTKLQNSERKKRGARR

B1: NUPR1 (recombinant, purified) (natural protein, UniProt O60356 1-82, looked up)
chain: T1 chain
notes: Nuclear Protein 1 (NUPR1), described as an intrinsically disordered protein of 82 amino acids with two tyrosines (Tyr30, Tyr36); also called Nuclear Protein 1; rNUPR1; source: expressed and purified as described (12)
B2: importin-α3 (residues 1–520), recombinant (domain or fragment, UniProt O00629 1-520, looked up)
chain: MADNEKLDNQRLKNFKNKGRDLETMRRQRNEVVVELRKNKRDEHLLKRRNVPHEDICEDSDIDGDYRVQNTSLEAIVQNASSDNQGIQLSAVQAARKLLSSDRNPPIDDLIKSGILPILVHCLERDDNPSLQFEAAWALTNIASGTSEQTQAVVQSNAVPLFLRLLHSPHQNVCEQAVWALGNIIGDGPQCRDYVISLGVVKPLLSFISPSIPITFLRNVTWVMVNLCRHKDPPPPMETIQEILPALCVLIHHTDVNILVDTVWALSYLTDAGNEQIQMVIDSGIVPHLVPLLSHQEVKVQTAALRAVGNIVTGTDEQTQVVLNCDALSHFPALLTHPKEKINKEAVWFLSNITAGNQQQVQAVIDANLVPMIIHLLDKGDFGTQKEAAWAISNLTISGRKDQVAYLIQQNVIPPFCNLLTVKDAQVVQVVLDGLSNILKMAEDEAETIGNLIEECGGLEKIEQLQNHENEDIYKLAYEIIDQFFSSDDIDEDPSLVPEAIQGGTFGFNSSANVPTEGFQ
notes: importin-α3 (KPNA4), residues 1–520, codon-optimized synthetic vector (Nzytech); called a 58 kDa protein with 6 tryptophans; also called KPNA4; importin-alpha3; source: final Superdex G200 16/60

Experiment [1] addresses B2. Put plainly: ITC; as a3 with ZZW-115 kept constant at 100 μM during the titration; analysed as an apparent quasibinary system and as an exact ternary system; 25°C. As to conditions: both partners purified. On the technique in general: ITC needs no label: the signal is the heat of the interaction.
For experiment [2], the target named is B2. Put plainly: ITC; importin-α3 (100–110 μM) in the syringe, NUPR1 (5–10 μM) in the calorimetric cell, Tris 50 mM pH 8, 25°C; single binding site model (1:1). As to conditions: both partners purified.
Experiment [3] addresses B1. Kind of experiment: ITC; as a3 with ZZW-115 kept constant at 100 μM during the titration; analysed as an apparent quasibinary system and as an exact ternary system; 25°C. The conditions noted are these: both partners purified.
For experiment [4], the target named is T1, NUPR1 (recombinant, purified). Kind of experiment: ITC; 25°C, with ZZW-115.
The target in experiment [5] is B1. Kind of experiment: ITC; importin-α3 (100–110 μM) in the syringe, NUPR1 (5–10 μM) in the calorimetric cell, Tris 50 mM pH 8, 25°C; single binding site model (1:1). The conditions noted are these: both partners purified.

With B1, the Kd in experiment [1] was found to be 35 µM. In experiment [2], the Ka came to 690000 M⁻¹ and the Kd was 1.4 µM.
With B2, the “fold reduction in affinity with 100 μM ZZW-115 (ternary equilibrium analysis)” value in experiment [3] was determined as 21 fold. The Ka in experiment [4] came out at 28000 M⁻¹. The dH in experiment [5] was -13.7 kcal/mol.

Source of the values: publication PMC7526551 (JCI Insight, 2020).
